The record followed here is paper PMC4049228 (Science (New York, N.Y.), 2014).

For the test, the target named is T1, Ricinus communis ATXR5 (RcATXR5 a.a. 158–374; nSET and SET domain) (Ricinus communis, UniProt B9RU15 158-374).
T1 sequence: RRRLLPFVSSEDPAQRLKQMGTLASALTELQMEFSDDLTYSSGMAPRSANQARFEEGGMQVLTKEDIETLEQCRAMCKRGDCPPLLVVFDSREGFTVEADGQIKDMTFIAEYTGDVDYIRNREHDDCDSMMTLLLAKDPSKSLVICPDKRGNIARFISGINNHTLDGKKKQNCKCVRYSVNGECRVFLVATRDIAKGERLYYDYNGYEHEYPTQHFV
Briefly: crystal structure.

Take KQLATKAARKSAPATGGVK [histone H3.1 peptide (a.a. 18–36)]: the binding result was “binds”.
